This note sets out measurements from US20160194399A1.

Assay [1] deals with SP34-binding peptide 15253. In words: flow cytometry on peptide-displaying E. coli, 100 nM SP34-dylight-488 with 100 nM isotype control, normalised to peptide expression (yPet-Mona).
For assay [2], the target named is SP34-binding peptide 15253. As to the kind of experiment: flow cytometry on peptide-displaying E. coli, 1 nM SP34-dylight-488 with 100 nM free human CD3ε as competitor, normalised to peptide expression (yPet-Mona). On the technique in general: A flow cytometer gives signals particle by particle.
The target in assay [3] is SP34-binding peptide 15253. In words: flow cytometry on peptide-displaying E. coli, 1 nM SP34-dylight-488 with 100 nM isotype control, normalised to peptide expression (yPet-Mona).
The target of assay [4] is SP34-binding peptide 15253. In words: flow cytometry on peptide-displaying E. coli, 0.1 nM SP34-dylight-488 with 100 nM isotype control, normalised to peptide expression (yPet-Mona).
In assay [5] the target is SP34-binding peptide 15253. In words: flow cytometry on peptide-displaying E. coli, 10 nM SP34-dylight-488 with 100 nM isotype control, normalised to peptide expression (yPet-Mona).

B1: Anti-CD3ε antibody SP34 (antibody, V domains shown)
VH: EVQLVESGGGLVQPKGSLKLSCAASGFTFNTYAMNWVRQAPGKGLEWVARIRSKYNNYATYYADSVKDRFTISRDDSQSILYLQMNNLKTEDTAMYYCVRHGNFGNSYVSWFAYWGQGTLVTVSA
VL: QAVVTQESALTTSPGETVTLTCRSSTGAVTTSNYANWVQEKPDHLFTGLIGGTNKRAPGVPARFSGSLIGDKAALTITGAQTEDEAIYFCALWYSNLWVFGGGTKLTVL
B1: the expression normalized binding in assay [1] was 2.53; in assay [2], 0.53; in assay [3] it was 0.68; in assay [4], 0.55; in assay [5], 0.98.
